Source: the supplement of paper PMC9112550, “Optimization of the antimicrobial peptide Bac7 by deep mutational scanning” (BMC Biology, 2022)

Each sequence was assayed on Escherichia coli TOP10 (assay: shrunken log2 fold change of peptide-encoding DNA abundance (4.5 h post-induction vs induction); higher = less antimicrobial activity (less host growth inhibition)). Details: time post-induction: 4.5 h; library: site-saturation at positions 5, 18, 19, 20.
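Note: peptides expressed intracellularly from a pBAD plasmid library in pooled LB shake-flask culture, induced with 0.3% L-arabinose, DNA abundance read by NGS, three biological replicates, DESeq2 with apeglm shrinkage.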

Sequence | shrunken log2 fold change
RRIRNRPPRLPRPRPRPCYPPRP | -0.318
RRIRVRPPRLPRPRPRPWLMPRP | -0.136
RRIRPRPPRLPRPRPRPTTFPRP | -0.173
RRIRCRPPRLPRPRPRPPQQPRP | 0.549
RRIRKRPPRLPRPRPRPWPKPRP | 0.274
RRIRERPPRLPRPRPRPRLTPRP | -0.0882
RRIRCRPPRLPRPRPRPWDLPRP | 0.129
RRIRCRPPRLPRPRPRPMPMPRP | -0.174
RRIRCRPPRLPRPRPRPPMLPRP | 0.0982
RRIRGRPPRLPRPRPRPFAFPRP | 0.531
RRIRHRPPRLPRPRPRPWLCPRP | 0.111
RRIRLRPPRLPRPRPRPLVCPRP | -0.0954
RRIRPRPPRLPRPRPRPMHWPRP | 0.335
RRIRRRPPRLPRPRPRPLGCPRP | 0.166
RRIRHRPPRLPRPRPRPNETPRP | 0.00408
RRIRFRPPRLPRPRPRPRSQPRP | -0.105
RRIRMRPPRLPRPRPRPFVQPRP | -0.216
RRIRSRPPRLPRPRPRPNMLPRP | -0.323
RRIRLRPPRLPRPRPRPRWQPRP | 0.217
RRIRRRPPRLPRPRPRPEKNPRP | 0.289
RRIRARPPRLPRPRPRPGRYPRP | 0.54
RRIRDRPPRLPRPRPRPVAEPRP | 1.16
RRIRVRPPRLPRPRPRPFDCPRP | -0.0718
RRIRFRPPRLPRPRPRPYENPRP | -0.463
RRIRPRPPRLPRPRPRPCDSPRP | 0.301

Sequence | shrunken log2 fold change
RRIRSRPPRLPRPRPRPNAIPRP | 0.235
RRIRGRPPRLPRPRPRPTWRPRP | 0.673
RRIRWRPPRLPRPRPRPISRPRP | -0.116
RRIRDRPPRLPRPRPRPTDQPRP | 0.118
RRIRNRPPRLPRPRPRPDSSPRP | -0.00145
RRIRYRPPRLPRPRPRPLTHPRP | -0.845
RRIRNRPPRLPRPRPRPMDFPRP | -0.12
RRIRWRPPRLPRPRPRPYYQPRP | -0.297
RRIRWRPPRLPRPRPRPDEIPRP | 0.0148
RRIRGRPPRLPRPRPRPGNGPRP | 0.434
RRIRFRPPRLPRPRPRPWWEPRP | 0.0381
RRIRRRPPRLPRPRPRPQGIPRP | -0.00228
RRIRWRPPRLPRPRPRPCLTPRP | -0.00541
RRIRWRPPRLPRPRPRPIHAPRP | 0.0364
RRIRQRPPRLPRPRPRPHFNPRP | -0.324
RRIRCRPPRLPRPRPRPMWGPRP | -0.214
RRIRGRPPRLPRPRPRPLWQPRP | 0.766
RRIRTRPPRLPRPRPRPFQLPRP | -0.138
RRIRVRPPRLPRPRPRPLLQPRP | 0.0881
RRIRPRPPRLPRPRPRPLWHPRP | -0.0751
RRIRIRPPRLPRPRPRPFDFPRP | -0.181
RRIRSRPPRLPRPRPRPDLMPRP | -0.0144
RRIRTRPPRLPRPRPRPANSPRP | -0.119
RRIRWRPPRLPRPRPRPDMDPRP | 0.0441
RRIRYRPPRLPRPRPRPDLPPRP | -0.0756

Sequence | shrunken log2 fold change
RRIRNRPPRLPRPRPRPAKKPRP | -0.0505
RRIRFRPPRLPRPRPRPKYDPRP | -0.606
RRIRLRPPRLPRPRPRPTKGPRP | 0.226
RRIRHRPPRLPRPRPRPWLAPRP | -0.26
RRIRFRPPRLPRPRPRPTCRPRP | -0.0357
RRIRWRPPRLPRPRPRPSTNPRP | -0.127
RRIRPRPPRLPRPRPRPWLAPRP | 0.343
RRIRIRPPRLPRPRPRPDCAPRP | -0.0601
RRIRWRPPRLPRPRPRPYCAPRP | -0.281
RRIRTRPPRLPRPRPRPDAIPRP | -0.141
RRIRQRPPRLPRPRPRPWPSPRP | 0.168
RRIRRRPPRLPRPRPRPYDQPRP | -0.0875
RRIRWRPPRLPRPRPRPWSHPRP | -0.00467
RRIRIRPPRLPRPRPRPENKPRP | -0.663
RRIRSRPPRLPRPRPRPLALPRP | -0.107
RRIRFRPPRLPRPRPRPAWHPRP | 0.259
RRIRPRPPRLPRPRPRPNNEPRP | -0.504
RRIRVRPPRLPRPRPRPPETPRP | -0.0362
RRIRPRPPRLPRPRPRPYVLPRP | -0.519
RRIRARPPRLPRPRPRPSWWPRP | 0.695
RRIRKRPPRLPRPRPRPRDVPRP | 0.316
RRIRARPPRLPRPRPRPWHFPRP | 0.24
RRIRRRPPRLPRPRPRPHDHPRP | 3.24
RRIRIRPPRLPRPRPRPSRCPRP | -0.174
RRIRNRPPRLPRPRPRPGSPPRP | -0.11
